{
  "source": "patent US11638741B2",
  "about": "“Composition for treating cancer or inhibiting cancer metastasis, including TFG or TFMG nanoparticles” (KYUNGPOOK NATIONAL UNIVERSITY INDUSTRY-ACADEMIC COOPERATION …, priority 2019, dated 2023)",
  "molecules": {"B1": {"name": "TFMG nanoparticles: a TRAP-ferritin monomer fragment-linker-PC-Gla fusion polypeptide; a polypeptide represented by SEQ ID NO: 2 (protein)", "chain": "MGGTTFLLRNASGHMSSQIRQNYSTDVEAAVNSLVNLYLQASYTYLSLGFYFDRDDVALEGVSHFFRELAEEKREGYERLLKMQNQRGGRIFLQDIKKPAEDEWGKTPDAMKAAMALEKKLNQALLDLHALGSARTDPHLCDFLETHFLDEEVKLIKKMGDHLTNLHRLGGGSEFVDGGGSGTSGPLGLAGANSFLEELRHSSLERECIEEICDFEEAKEIFQNVDDTLAFWSKHVLEHHHHHH", "modifications": "nanoparticle assembly; TFMG nanoparticle"}, "B2": {"name": "TFG nanoparticles: a TRAP-ferritin monomer fragment-PC-Gla fusion polypeptide; a polypeptide represented by SEQ ID NO: 1 (protein)", "chain": "MGGTTFLLRNASGHMSSQIRQNYSTDVEAAVNSLVNLYLQASYTYLSLGFYFDRDDVALEGVSHFFRELAEEKREGYERLLKMQNQRGGRIFLQDIKKPAEDEWGKTPDAMKAAMALEKKLNQALLDLHALGSARTDPHLCDFLETHFLDEEVKLIKKMGDHLTNLHRLGGGSEFVDGGGSGTSANSFLEELRHSSLERECIEEICDFEEAKEIFQNVDDTLAFWSKHVLEHHHHHH", "modifications": "nanoparticle assembly; TFG nanoparticle"}},
  "key": {"[1]": {"tested_on": "Lewis lung carcinoma (LLC)", "assay": "Enhancement of cisplatin treatment effects in LLC allograft model (tumor size, survival)", "type": "in vivo, C57BL/6J mice", "details": "for inhibiting the growth of the tumor: nanoparticles 100 nM (days 7, 10, 13) administered together with cisplatin 3 mg/kg (days 7, 12), on day 13", "experimental": "In order to confirm whether the treatment effects of a conventionally used anticancer agent may be enhanced by normalizing abnormal blood vessels in a tumor, 100 nM of the TFG nanoparticles or TFMG nanoparticles was injected into the tail vein in a tumor animal model prepared in the same manner as in Example 2.1 on days 7, 10, and 13, cisplatin was injected at a concentration of 3 mg/kg on days 7 and 12, and the survival proportion was measured. An equal amount of phosphate buffered saline was injected into a negative control (Con), and an equal amount of cisplatin was injected alone into a positive control (Cis). Then, the tumor size was confirmed by obtaining tumors on days 9, 11, and 13. The results are illustrated in FIGS. 8 and 9."}, "[2]": {"tested_on": "Lewis lung carcinoma (LLC)", "assay": "Inhibition of tumor proliferation and survival in LLC allograft tumor animal model", "type": "in vivo, C57BL/6J mice", "details": "100 nM into the tail vein on days 7, 10, 13; for survival proportion: FIG. 3; for tumor growth inhibition effect: compared with the control, tumor obtained on day 14", "experimental": "In order to confirm the effects of the TFG nanoparticles or TFMG nanoparticles on the proliferation of cancer cells, after a tumor animal model was prepared by allografting 2 to 5×10^5 cells of Lewis lung carcinoma (LLC) as a murine lung cancer cell line into 6- to 7-week-old C57BL/6J mice, 100 nM of the TFG nanoparticles or TFMG nanoparticles was injected into the tail vein on days 7, 10, and 13, and then the size and survival proportion of the tumor were observed by obtaining the tumor on day 14. The tumor size was measured by substitution into the formula “0.5×A×B^2 (A: diameter in the longest direction, and B: diameter in a direction vertical to the longest direction).” An equal amount of phosphate buffered saline was administered to a control (Con). Animal care and all experimental procedures were performed in accordance with the laws and regulations for animal experiments. In order to show a significant difference between the corresponding groups in at least 3 of all the experimental result values, an ANOVA verification was performed, and only values with statistical significance of P-values <0.05 were shown as the average value±standard deviations (SD). The results are illustrated in FIGS. 1 to 3."}, "[3]": {"tested_on": "Lewis lung carcinoma (LLC)", "assay": "Inhibition of tumor metastasis into lungs and inguinal lymph nodes, LLC allograft model after tumor removal surgery", "type": "in vivo, C57BL/6J mice", "details": "compared with the control; for lymph node metastasis inhibition rate: inguinal lymph nodes, IHC, day 28; for metastasis of the tumor into the lungs inhibited: tumor removal surgery day 14, metastasis confirmed day 28", "experimental": "In order to confirm whether the TFG nanoparticles or TFMG nanoparticles affected the inhibition of metastasis of tumor, a tumor animal model was prepared in the same manner as in Example 2.1, and then the TFG nanoparticles or TFMG nanoparticles were injected. Then, a tumor removal surgery was performed on day 14, and it was confirmed whether the tumor metastasized into the lungs and the inguinal lymph nodes (LNs) on day 28. The metastasis into the inguinal lymph nodes was confirmed using immunohistochemistry (IHC) analyses. More specifically, the lymph nodes obtained to confirm cytokeratin positive tumor cells were fixed with 3.7% paraformaldehyde (PFA), and then dehydrated by treatment with a 10 to 40% sucrose solution at each step. Then, after the permeability of cells was increased by treatment with 0.3% Triton X-100 and a blocking process was performed using a bovine serum albumin (BSA), the lymph nodes were treated with rat anti-CD31 (BD Biosciences), mouse anti-α-SMA (Abcam), mouse anti-pimonidazole (HPI), mouse anti-cytokeratin II (Millipore), or rabbit anti-LYVE-1 (Angiobio) antibodies, and reacted at 4° C. for 16 hours. Then, unbound antibodies were washed using phosphate buffered saline, and then treated with Alexa Fluor 488-, 568-, or 647-conjugated anti-mouse IgG (Invitrogen), Alexa Fluor 594- or 647-conjugated anti-rat IgG (Invitrogen), Alexa Fluor 488-, 568-, or 647-conjugated anti-rabbit IgG (Invitrogen) antibodies that were secondary antibodies to a fluorescent marker, and reacted at room temperature for 1 hour. Then, finally, cellular nuclei were stained by treatment with Hoechst33258 (Invitrogen) for 1 minute, and then observed using a confocal microscope, and a fluorescence value was quantified using ImageJ. In order to show a significant difference between the corresponding groups in at least 3 of all the experimental result values, an ANOVA verification was performed, and only values with statistical significance of P-values <0.05 were shown as the average value±standard deviations (SD). The results are illustrated in FIGS. 4 to 5."}, "[4]": {"tested_on": "blood vessels in a tumor (Lewis lung carcinoma (LLC))", "assay": "Structure and function of blood vessels in LLC tumor (IHC, pimonidazole hypoxia staining)", "type": "in vivo, C57BL/6J mice", "details": "FIG. 7", "experimental": "The structure and function of blood vessels in a tumor were analyzed using the tumor obtained in the same manner as in Example 2.1. More specifically, the obtained tumor was observed using a confocal microscope after fluorescent staining was performed through IHC analyses in the same manner as in Example 2.2. In order to measure the hypoxic state inside the tumor, 60 mg/kg of Hypoxyprobe-1™ (pimonidazole hydrochloride; PIMO, HPI) was administered through intraperitoneal injection, and 90 minutes later, the mouse was sacrificed and the tumor extracted. The extracted tumor was incised, and then stained with mouse anti-hypoxyprobe antibody (HPI), Alexa Fluor 488-, 568-, or 647-conjugated anti-mouse IgG (Invitrogen), and in order to measure the degree of leakage of blood vessels in the tumor, 40 mg/kg of Hoechst33258 (Invitrogen) was intravenously injected 5 minutes before the mouse was sacrificed. The prepared sample was obtained using a confocal microscope. The results are illustrated in FIGS. 6 and 7."}, "[5]": {"tested_on": "naturally occurring tumor model (MMTV-PyMT gene transplanted mice)", "assay": "Inhibition of tumor proliferation in naturally occurring tumor model", "type": "in vivo", "details": "100 nM into tail veins of 12-week-old mice; tumors obtained at 15 weeks", "experimental": "More specifically, the sizes of all the distinct nodules of 12-week-old mice were measured, and the mice were grouped according to the sizes of the tumors. Then, 100 nM of the TFG nanoparticles or TFMG nanoparticles was injected into their tail veins, and the tumors were obtained when the mice became 15 weeks old. Then, the sizes of the tumors were measured in the same manner as in Example 2.1. The results are illustrated in FIG. 11."}, "[6]": {"tested_on": "naturally occurring tumor model (MMTV-PyMT gene transplanted mice)", "assay": "Inhibition of tumor metastasis in naturally occurring tumor model", "type": "in vivo", "details": "compared to the control; 100 nM into tail veins at 12 weeks, confirmed at 15 weeks", "text": "The results are illustrated in FIG. 12."}},
  "data": [
    {"molecule": "N.N.[Cl][Pt][Cl]", "note": "[cisplatin, reference compound]", "values": [
      {"measurement": "growth of the tumor inhibited", "setting": "[1]; cisplatin administered alone, 3 mg/kg on days 7 and 12 (positive control)", "result": 62.6, "unit": "%"}
    ]},
    {"molecule": "B1", "values": [
      {"measurement": "survival proportion", "setting": "[2]", "result": "increased"},
      {"measurement": "tumor growth inhibition effect", "setting": "[2]", "result": 27.0, "unit": "%"},
      {"measurement": "lymph node metastasis inhibition rate", "setting": "[3]", "result": 78.1, "unit": "%"},
      {"measurement": "metastasis of the tumor into the lungs inhibited", "setting": "[3]", "result": 86.4, "unit": "%"},
      {"measurement": "blood vessels covered with α-smooth muscle actin positive pericytes", "setting": "[4]", "result": "increased"},
      {"measurement": "inhibiting the growth of the tumor", "setting": "[1]", "result": 94.3, "unit": "%"},
      {"measurement": "number of nodules with tumors decreased", "setting": "[5]", "result": 59, "unit": "%"},
      {"measurement": "sizes of the tumors decreased", "setting": "[5]", "result": 87.2, "unit": "%"},
      {"measurement": "metastasis inhibition rate", "setting": "[6]", "result": 93.6, "unit": "%"}
    ]},
    {"molecule": "B2", "values": [
      {"measurement": "survival proportion", "setting": "[2]", "result": "increased"},
      {"measurement": "tumor growth inhibition effect", "setting": "[2]", "result": 28.2, "unit": "%"},
      {"measurement": "lymph node metastasis inhibition rate", "setting": "[3]", "result": 76.9, "unit": "%"},
      {"measurement": "metastasis of the tumor into the lungs inhibited", "setting": "[3]", "result": 83.4, "unit": "%"},
      {"measurement": "blood vessels covered with α-smooth muscle actin positive pericytes", "setting": "[4]", "result": "increased"},
      {"measurement": "inhibiting the growth of the tumor", "setting": "[1]", "result": 96.2, "unit": "%"},
      {"measurement": "number of nodules with tumors decreased", "setting": "[5]", "result": 39.1, "unit": "%"},
      {"measurement": "sizes of the tumors decreased", "setting": "[5]", "result": 85, "unit": "%"},
      {"measurement": "metastasis inhibition rate", "setting": "[6]", "result": 93.6, "unit": "%"}
    ]}
  ]
}
